Results published in publication PMC8373119.

Columns and labels:
[1] = target: ΔLaminin G1_Celsr3 (mouse Celsr3-Flag lacking the laminin G1 domain) (mouse) (UniProt Q91ZI0); assay: co-IP
[2] = target: ΔEGF/Lam_Celsr3 (mouse Celsr3-Flag lacking all the EGF repeats and laminin domains) (mouse) (UniProt Q91ZI0); assay: co-IP

- percent reduction of the interaction against wild-type Celsr3 [1]: 66%
- percent reduction of the interaction against wild-type Celsr3 [2]: 68%
B1: mouse Frizzled3 (Frizzled3-HA) (receptor)
chain: HSLFSCEPITLRMCQDLPYNTTFMPNLLNHYDQQTAALAMEPFHPMVNLDCSRDFRPFLCALYAPICMEYGRVTLPCRRLCQRAYSECSKLMEMFGVPWPEDMECSRFPDCDEPYPRLVDLNLVGDPTEGAPVAVQRDYGFWCPRELKIDPDLGYSFLHVRDCSPPCPNMYFRREELSFARYFIGLISIICLSATLFTFLTFLIDVTRFRYPERPIIFYAVCYMMVSLIFFIGFLLEDRVACNASSPAQYKASTVTQGSHNKACTMLFMVLYFFTMAGSVWWVILTITWFLAAVPKWGSEAIEKKALLFHASAWGIPGTLTIILLAMNKIEGDNISGVCFVGLYDVDALRYFVLAPLCLYVVVGVSLLLAGIISLNRVRIEIPLEKENQDKLVKFMIRIGVFSILYLVPLLVVIGCYFYEQAYRGIWETTWIQERCREYHIPCPYQVTQMSRPDLILFLMKYLMALIVGIPSIFWVGSKKTCFEWASFFHGRRKKEIVNESRQVLQEPDFAQSLLRDPNTPIIRKSRGTSTQGTSTHASSTQLAMVDDQRSKAGSVHSKVSSYHGSLHRSRDGRYTPCSYRGMEERLPHGSMSRLTDHSRHSSSHRLNEQSRHSSIRDLSNNPMTHITHGTSMNRVIEEDGTSA
